Experimental data taken from patent US20240041989A1 (UNIVERSITY OF KENTUCKY RESEARCH FOUNDATION, published 2024).

Columns and labels:
[1] = biological target: T1, Human FcRn, soluble single-chain fusion protein (B2M-(GGGGS)3-heavy chain without transmembrane domain-6xHis) (human, UniProt P61769 21-119; P55899 24-297); experiment: ELISA, FcRn coated on plate, pH 6.0
T1 construct: also called neonatal Fc receptor; hFcRn
Method: (§1) In vitro binding affinity assay. The binding affinity of the BChE fusion proteins corresponding to CocH3-Fc (SEQ ID NO: 9), CocH3-Fc(M6) (SEQ ID NO: 10), CocH3G-Fc(M3) (SEQ ID NO: 11), CocH3G-Fc(M4) (SEQ ID NO: 12), CocH3G-Fc(M6) (SEQ ID NO: 13), CocH5G-Fc(M3) (SEQ ID NO: 14), CocH5G-Fc(M4) (SEQ ID NO: 15), and CocH5G-Fc(M6) (SEQ ID NO: 16), BChE-Fc(M3) (SEQ ID NO: 17), BChE-Fc(M4) (SEQ ID NO: 18), and BChE-Fc(M6) (SEQ ID NO: 19) with FcRn was determined by using an enzyme-linked immunosorbent assay (ELISA). 400 ng of the 6×His-tagged FcRn in 100 μL 0.05 M PBS, pH 7.4, was immobilized in a 96-well flat-bottomed EIA plate (Corning) at 4° C. overnight (or 37° C. for 2 hours). At the same time, corresponding empty wells without FcRn coating were left as a negative control. The liquid was dumped from the plates and the rest was drained on a paper towel. Coated wells were blocked with blocking buffer (0.05 M PBS, pH 6.0, containing 1 mg/ml casein) (250 μL/well) at room temperature (RT) for 1 hour. After washing twice with washing buffer (0.05 M PBS, pH 6.0) (250 μL/well), 100 μL of BChE fusion protein diluted in blocking buffer, pH 6.0 was added to each well at a range of concentrations. The plate was then covered with an adhesive plastic and incubated, with continuous shaking, at RT for 1 hour. After washing three times with washing buffer, an enzyme horseradish peroxidase (HRP)-conjugated antibody (anti-human IgG-Fc Ab-HRP) (70 μL/well), diluted with blocking buffer at a ratio of 1:20,000, was added into each well and incubated at RT for 30 minutes on a shaker. The wells were then washed three times with washing buffer (250 μL/well) before 250 μL TMB substrate was added to the wells. The ELISA plate was kept in the dark until the desired color developed. The reaction was stopped with 100 μL of 0.5 M HCl. The absorbance (the developed blue color) was measured at 450 nm using a microplate reader. All measurements were performed in triplicate or quadruplicate.

[2] = biological target: T1, Human FcRn, soluble single-chain fusion …; experiment: ELISA, FcRn coated on plate, pH 6.0; reference CocH3-Fc
Method: as §1, with “After washing three times with washing buffer, an enzyme horseradish peroxidase (HRP)-conjugated antibody (anti-human IgG-Fc Ab-HRP) (70 μL/well), diluted with blocking buffer at a ratio of 1:20,000, was added into each well and incubated at RT for 30 minutes on a shaker. The wells were then washed three times with washing buffer (250 μL/well) before 250 μL TMB substrate was added to the wells. The ELISA plate was kept in the dark until the desired color developed. The reaction was stopped with 100 μL of 0.5 M HCl.” left out, “All measurements were performed in triplicate or quadruplicate.” left out

[3] = biological target: T1, Human FcRn, soluble single-chain fusion …; experiment: ELISA, FcRn coated on plate, pH 6.0, anti-human IgG-Fc-HRP detection
Method: as §1, with “After washing three times with washing buffer, an enzyme horseradish peroxidase (HRP)-conjugated antibody (anti-human IgG-Fc Ab-HRP) (70 μL/well), diluted with blocking buffer at a ratio of 1:20,000, was added into each well and incubated at RT for 30 minutes on a shaker. The wells were then washed three times with washing buffer (250 μL/well) before 250 μL TMB substrate was added to the wells. The ELISA plate was kept in the dark until the desired color developed. The reaction was stopped with 100 μL of 0.5 M HCl.” left out, “All measurements were performed in triplicate or quadruplicate.” left out

T1 sequence (P61769 other isoform, or with tags, fused parts or gaps limits assumed): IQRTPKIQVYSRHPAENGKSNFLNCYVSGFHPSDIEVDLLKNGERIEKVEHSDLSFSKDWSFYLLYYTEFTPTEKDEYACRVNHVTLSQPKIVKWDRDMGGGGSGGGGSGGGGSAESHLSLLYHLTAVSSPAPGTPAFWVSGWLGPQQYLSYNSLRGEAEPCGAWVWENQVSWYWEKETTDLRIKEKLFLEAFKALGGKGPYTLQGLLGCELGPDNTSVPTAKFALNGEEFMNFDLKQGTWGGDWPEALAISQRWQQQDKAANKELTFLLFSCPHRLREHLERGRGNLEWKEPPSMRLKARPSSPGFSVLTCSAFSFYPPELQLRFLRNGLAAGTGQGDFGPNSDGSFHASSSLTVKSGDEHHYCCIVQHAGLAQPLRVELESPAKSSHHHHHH

Row | Binder | Kd [1] [nM] | fold improvement in binding affinity against CocH3-Fc [2] [fold] | Kd [3] [nM]
1 | BChE-Fc(M6) (Fc fusion, Wild-type BChE fused to Fc(M6)) EDDIIIATKNGKVRGMNLTVFGGTVTAFLGIPYAQPPLGRLRFKKPQSLTKWSDIWNATKYANSCCQNIDQSFPGFHGSEMWNPNTDLSEDCLYLNVWIPAPKPKNATVLIWIYGGGFQTGTSSLHVYDGKFLARVERVIVVSMNYRVGALGFLALPGNPEAPGNMGLFDQQLALQWVQKNIAAFGGNPKSVTLFGESAGAASVSLHLLSPGSHSLFTRAILQSGSFNAPWAVTSLYEARNRTLNLAKLTGCSRENETEIIKCLRNKDPQEILLNEAFVVPYGTPLSVNFGPTVDGDFLTDMPDILLELGQFKKTQILVGVNKDEGTAFLVYGAPGFSKDNNSIITRKEFQEGLKIFFPGVSEFGKESILFHYTDWVDDQRPENYREALGDVVGDYNFICPALEFTKKFSEWGNNAFFYYFEHRSSKLPWPEWMGVMHGYEIEFVFGLPLERRDNYTKAEEILSRSIVKRWANFAKYGNPNETQNNSTSWPVFKSTEQKYLTLNTESTRIMTKLRAQQCRFWTSFFPKVVEPKSCDKTHTCPPCPAPELLGGPSVFLFPPKPKDTLYITREPEVTCVVVDVSHEDPEVKFNWYVDGVEVHNAKTKPREEQYNSTYRVVSVLTVLHQDWLNGKEYKCKVSNKALPAPIEKTISKAKGQPREPQVYTLPPSREEMTKNQVSLTCLVKGFYPSDIAVEWESNGQPENNYKTTPPVLDSDGSFFLYSKLTVDKSRWQQGNVFSCSVMHEALHNHYTQKSLSLSPGK | 40 | – | –
2 | CocH3-Fc(M6) (Fc fusion, Expressed in CHO-S cells and purified on protein A; also called A530V/M567Y/S569T/T571E/D671E/L673M mutant of CocH3-Fc) EDDIIIATKNGKVRGMNLTVFGGTVTAFLGIPYAQPPLGRLRFKKPQSLTKWSDIWNATKYANSCCQNIDQSFPGFHGSEMWNPNTDLSEDCLYLNVWIPAPKPKNATVLIWIYGGGFQTGTSSLHVYDGKFLARVERVIVVSMNYRVGALGFLALPGNPEAPGNMGLFDQQLALQWVQKNIAAFGGNPKSVTLFGESSGAASVSLHLLSPGSHSLFTRAILQSGSANAPWAVTSLYEARNRTLNLAKLTGCSRENETEIIKCLRNKDPQEILLNEAFVVPYGTPLGVNFGPTVDGDFLTDMPDILLELGQFKKTQILVGVNKDEGTWFLVGGAPGFSKDNNSIITRKEFQEGLKIFFPGVSEFGKESILFHYTDWVDDQRPENYREALGDVVGDYNFICPALEFTKKFSEWGNNAFFYYFEHRSSKLPWPEWMGVMHGYEIEFVFGLPLERRDNYTKAEEILSRSIVKRWANFAKYGNPNETQNNSTSWPVFKSTEQKYLTLNTESTRIMTKLRAQQCRFWTSFFPKVVEPKSCDKTHTCPPCPAPELLGGPSVFLFPPKPKDTLYITREPEVTCVVVDVSHEDPEVKFNWYVDGVEVHNAKTKPREEQYNSTYRVVSVLTVLHQDWLNGKEYKCKVSNKALPAPIEKTISKAKGQPREPQVYTLPPSREEMTKNQVSLTCLVKGFYPSDIAVEWESNGQPENNYKTTPPVLDSDGSFFLYSKLTVDKSRWQQGNVFSCSVMHEALHNHYTQKSLSLSPGK | 43 | ~100 | 43

Second part, the binder after the results:

Row | Kd [1] [nM] | fold improvement in binding affinity against CocH3-Fc [2] [fold] | Kd [3] [nM] | Binder
3 | 40 | – | – | CocH5G-Fc(M6) (Fc fusion) EDDIIIATKNGKVRGMNLTVFGGTVTAFLGIPYAQPPLGRLRFKKPQSLTKWSDIWNATKYANSCCQNIDQSFPGFHGSEMWNPNTDLSEDCLYLNVWIPAPKPKNATVLIWIYGGGFQTGTSSLHVYDGKFLARVERVIVVSMNYRVGALGFLALPGNPEAPGNMGLFDQQLALQWVQKNIAAFGGNPKSVTLFGESSGAASVSLHLLSPGSHSLFTRAILQSGSANAPWAVTSLYEARNRTLNLAKLTGCSRENETEIIKCLRNKDPQEILLNEAFVVPYGTALGVNFGPTVDGDFLTDMPDILLELGQFKKTQILVGVNKDEGTWFLVGGAPGFSKDNNSIITRKEFQEGLKIFFPGVSEFGKESILFHYTDWVDDQRPENYREALGDVVGDYNFICPALEFTKKFSEWGNNAFFYYFEHRSSKLPWPEWMGVMHGYEIEFVFGLPLERRDNYTKAEEILSRSIVKRWANFAKYGNPNETQNNSTSWPVFKSTEQKYLTLNTESTRIMTKLRAQQCRFWGSFFPKVVEPKSCDKTHTCPPCPAPELLGGPSVFLFPPKPKDTLYITREPEVTCVVVDVSHEDPEVKFNWYVDGVEVHNAKTKPREEQYNSTYRVVSVLTVLHQDWLNGKEYKCKVSNKALPAPIEKTISKAKGQPREPQVYTLPPSREEMTKNQVSLTCLVKGFYPSDIAVEWESNGQPENNYKTTPPVLDSDGSFFLYSKLTVDKSRWQQGNVFSCSVMHEALHNHYTQKSLSLSPGK
4 | 40 | – | – | CocH3G-Fc(M6) (Fc fusion) EDDIIIATKNGKVRGMNLTVFGGTVTAFLGIPYAQPPLGRLRFKKPQSLTKWSDIWNATKYANSCCQNIDQSFPGFHGSEMWNPNTDLSEDCLYLNVWIPAPKPKNATVLIWIYGGGFQTGTSSLHVYDGKFLARVERVIVVSMNYRVGALGFLALPGNPEAPGNMGLFDQQLALQWVQKNIAAFGGNPKSVTLFGESSGAASVSLHLLSPGSHSLFTRAILQSGSANAPWAVTSLYEARNRTLNLAKLTGCSRENETEIIKCLRNKDPQEILLNEAFVVPYGTPLGVNFGPTVDGDFLTDMPDILLELGQFKKTQILVGVNKDEGTWFLVGGAPGFSKDNNSIITRKEFQEGLKIFFPGVSEFGKESILFHYTDWVDDQRPENYREALGDVVGDYNFICPALEFTKKFSEWGNNAFFYYFEHRSSKLPWPEWMGVMHGYEIEFVFGLPLERRDNYTKAEEILSRSIVKRWANFAKYGNPNETQNNSTSWPVFKSTEQKYLTLNTESTRIMTKLRAQQCRFWGSFFPKVVEPKSCDKTHTCPPCPAPELLGGPSVFLFPPKPKDTLYITREPEVTCVVVDVSHEDPEVKFNWYVDGVEVHNAKTKPREEQYNSTYRVVSVLTVLHQDWLNGKEYKCKVSNKALPAPIEKTISKAKGQPREPQVYTLPPSREEMTKNQVSLTCLVKGFYPSDIAVEWESNGQPENNYKTTPPVLDSDGSFFLYSKLTVDKSRWQQGNVFSCSVMHEALHNHYTQKSLSLSPGK
